Assay results: PMC7969032, “Tandem RNA binding sites induce self-association of the stress granule marker protein TIA-1”

What was measured:
[1] = target: T1, TIA-1 full length (short isoform, p40) (human, UniProt P31483-2 1-375); assay: SAXS; 500 mM arginine; SASDJK5; FA: 1 nM Fl-TC1; RRM23 in 10 mM HEPES pH 7.2, 50 mM NaCl, 1 mM DTT (legend: 20 mM HEPES); full-length TIA-1 in 20 mM sodium phosphate, 60 mM KCl, 0.5 M arginine-HCl, 1 mM MgCl2, 2 mM DTT, 0.5 mM EDTA, pH 7; Csat at room temperature; conditions: protein: recombinant; tags: His-tag removed by TEV (untagged)
T1 sequence: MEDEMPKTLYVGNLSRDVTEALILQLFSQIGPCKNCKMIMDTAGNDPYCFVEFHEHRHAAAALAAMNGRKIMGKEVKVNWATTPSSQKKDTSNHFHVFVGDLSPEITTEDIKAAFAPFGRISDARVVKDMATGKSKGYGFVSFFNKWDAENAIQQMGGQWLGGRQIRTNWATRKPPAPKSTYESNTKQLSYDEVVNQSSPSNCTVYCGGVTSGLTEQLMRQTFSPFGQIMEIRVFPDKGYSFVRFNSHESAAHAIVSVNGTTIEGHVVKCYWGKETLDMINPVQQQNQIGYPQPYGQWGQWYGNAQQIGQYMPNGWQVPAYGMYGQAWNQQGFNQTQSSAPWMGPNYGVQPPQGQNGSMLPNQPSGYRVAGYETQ

[2] = target: T1, TIA-1 full length (short isoform, p40); assay: SAXS; 500 mM arginine; SASDJL5; FA: 1 nM Fl-TC1; RRM23 in 10 mM HEPES pH 7.2, 50 mM NaCl, 1 mM DTT (legend: 20 mM HEPES); full-length TIA-1 in 20 mM sodium phosphate, 60 mM KCl, 0.5 M arginine-HCl, 1 mM MgCl2, 2 mM DTT, 0.5 mM EDTA, pH 7; Csat at room temperature; conditions: protein: recombinant; tags: His-tag removed by TEV (untagged)
[3] = target: T1, TIA-1 full length (short isoform, p40); assay: co-sedimentation with condensed phase (PAGE); 4:1 TIA-1:TC site, 10 uM TIA-1; FA: 1 nM Fl-TC1; RRM23 in 10 mM HEPES pH 7.2, 50 mM NaCl, 1 mM DTT (legend: 20 mM HEPES); full-length TIA-1 in 20 mM sodium phosphate, 60 mM KCl, 0.5 M arginine-HCl, 1 mM MgCl2, 2 mM DTT, 0.5 mM EDTA, pH 7; Csat at room temperature; conditions: protein: recombinant; tags: His-tag removed by TEV (untagged)
[4] = target: T1, TIA-1 full length (short isoform, p40); assay: fluorescence anisotropy; 0.5 M arginine-HCl, 60 mM KCl, 1 mM MgCl2; KD not in text; FA: 1 nM Fl-TC1; RRM23 in 10 mM HEPES pH 7.2, 50 mM NaCl, 1 mM DTT (legend: 20 mM HEPES); full-length TIA-1 in 20 mM sodium phosphate, 60 mM KCl, 0.5 M arginine-HCl, 1 mM MgCl2, 2 mM DTT, 0.5 mM EDTA, pH 7; Csat at room temperature; conditions: protein: recombinant; tags: His-tag removed by TEV (untagged); label: 5'-fluorescein

Binder | binding result [3] | further results
TTTTTACTCC (ssDNA) [TC1] | – | binding result [1]: binds
UUUUUACUCC (ssRNA) [UC1] | – | binding result [2]: binds
TTTTTACTCCAATTTTTACTCCAATTTTTACTCC (ssDNA) [TC3] | binds | –
TTTTTACTCC (ssDNA) [TC1 (5'-fluorescein)] | – | binding result [4]: binds
TTTTTACTCCAATTTTTACTCC (ssDNA) [TC2] | binds | –
TC7 (ssDNA) DNA: TTTTTACTCCAATTTTTACTCCAATTTTTACTCCAATTTTTACTCCAATTTTTACTCCAATTTTTACTCCAATTTTTACTCC | binds | –
TC9 (ssDNA) DNA: TTTTTACTCCAATTTTTACTCCAATTTTTACTCCAATTTTTACTCCAATTTTTACTCCAATTTTTACTCCAATTTTTACTCCAATTTTTACTCCAATTTTTACTCC | binds | –
TC5 (ssDNA) DNA: TTTTTACTCCAATTTTTACTCCAATTTTTACTCCAATTTTTACTCCAATTTTTACTCC | binds | –
